Series [1] concerns FMRP (His-tagged recombinant). Put plainly: filter binding competition. The settings on record: vs 32P-N19; EMSA or filter binding as in ref 4, with K+ or Na+; buffer, pH and temperature not in the material.
Series [2] relates to FMRP (His-tagged recombinant). Put plainly: EMSA competition. The settings on record: vs 32P-N19; EMSA or filter binding as in ref 4, with K+ or Na+; buffer, pH and temperature not in the material. (In general: A gel shift assay detects complexes by their altered migration in electrophoresis.)
The next series has as its system FXR1P Isoe. Put plainly: filter binding competition. Conditions: self-competition, 32P-Sod1; EMSA or filter binding as in ref 4, with K+ or Na+; buffer, pH and temperature not in the material.

pIC50: −log10 of the molar value.

Take Sod1-5' region: the pIC50 (commonly the negative decadic logarithm of the IC50, by convention in mol/L) in series [1] is 8.52.
Regarding Sod1 full-length mRNA, the binding signal (% competition at 5 nM) in series [2] was determined as 65. Further, the pIC50 is 8.52 in series [1] and 7.70 with FXR1P Isoe.

For the origin of these results see paper PMC2628407.
